Measured values taken from patent US20200123228A1.
Read-outs that look alike come from different tables or passages of the source.

What was measured:
rmCTLA4 (mouse) [1] = molecular target: rmCTLA4 (mouse) (UniProt P09793); assay: ELISA
rmCTLA4 (mouse) [2] = molecular target: rmCTLA4 (mouse) (UniProt P09793); assay: ELISA; remark: listed apart in the source
Collagen I (human) = Collagen I (human) (UniProt P02452); assay: ELISA
Fibronectin (human) = Fibronectin (human) (UniProt P02751); assay: ELISA
rmCTLA4 (mouse) [3] = molecular target: rmCTLA4 (mouse) (UniProt P09793); assay: ELISA; remark: listed apart in the source
[4] = molecular target: bovine collagen (Symatese), polymerized gel (bovine); assay: retention on polymerized bovine collagen gel, antibody loaded at 10 µg/mL, released antibody measured by ELISA

Sequence of rmCTLA4 (mouse) (P09793 36-162): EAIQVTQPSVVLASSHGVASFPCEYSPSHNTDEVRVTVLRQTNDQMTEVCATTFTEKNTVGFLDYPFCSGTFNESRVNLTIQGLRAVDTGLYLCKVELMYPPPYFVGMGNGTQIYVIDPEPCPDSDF
Sequence of Collagen I (human) (P02452 162-1218, chain 1 of 2): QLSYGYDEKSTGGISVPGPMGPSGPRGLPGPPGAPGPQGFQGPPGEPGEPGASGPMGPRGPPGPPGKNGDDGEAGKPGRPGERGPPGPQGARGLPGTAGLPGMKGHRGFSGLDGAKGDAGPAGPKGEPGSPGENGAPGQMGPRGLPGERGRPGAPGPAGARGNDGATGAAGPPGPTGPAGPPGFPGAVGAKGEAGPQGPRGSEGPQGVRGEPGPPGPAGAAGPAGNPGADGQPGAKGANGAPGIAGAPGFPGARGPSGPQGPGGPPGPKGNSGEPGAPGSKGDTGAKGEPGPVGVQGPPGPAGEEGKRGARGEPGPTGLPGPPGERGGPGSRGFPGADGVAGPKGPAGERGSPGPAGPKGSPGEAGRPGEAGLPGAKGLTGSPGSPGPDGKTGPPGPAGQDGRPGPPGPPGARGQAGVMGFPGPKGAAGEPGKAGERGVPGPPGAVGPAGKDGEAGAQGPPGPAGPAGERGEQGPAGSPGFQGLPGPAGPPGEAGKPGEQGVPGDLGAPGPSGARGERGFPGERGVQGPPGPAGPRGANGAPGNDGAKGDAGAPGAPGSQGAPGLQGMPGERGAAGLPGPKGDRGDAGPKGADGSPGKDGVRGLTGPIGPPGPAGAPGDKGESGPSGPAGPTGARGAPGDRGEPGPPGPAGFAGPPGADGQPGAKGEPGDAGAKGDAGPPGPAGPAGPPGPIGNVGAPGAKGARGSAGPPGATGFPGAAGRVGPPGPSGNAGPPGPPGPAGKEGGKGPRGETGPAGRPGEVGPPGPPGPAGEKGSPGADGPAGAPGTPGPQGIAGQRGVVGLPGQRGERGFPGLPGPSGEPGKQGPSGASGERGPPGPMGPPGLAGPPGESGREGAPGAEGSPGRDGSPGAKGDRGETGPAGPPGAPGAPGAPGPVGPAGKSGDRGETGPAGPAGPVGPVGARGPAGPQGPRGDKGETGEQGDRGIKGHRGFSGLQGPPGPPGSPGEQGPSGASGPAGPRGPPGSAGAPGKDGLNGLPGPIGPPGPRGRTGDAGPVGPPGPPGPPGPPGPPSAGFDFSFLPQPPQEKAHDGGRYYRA
Sequence of Collagen I (human) (P08123 80-1119, chain 2 of 2, further chain): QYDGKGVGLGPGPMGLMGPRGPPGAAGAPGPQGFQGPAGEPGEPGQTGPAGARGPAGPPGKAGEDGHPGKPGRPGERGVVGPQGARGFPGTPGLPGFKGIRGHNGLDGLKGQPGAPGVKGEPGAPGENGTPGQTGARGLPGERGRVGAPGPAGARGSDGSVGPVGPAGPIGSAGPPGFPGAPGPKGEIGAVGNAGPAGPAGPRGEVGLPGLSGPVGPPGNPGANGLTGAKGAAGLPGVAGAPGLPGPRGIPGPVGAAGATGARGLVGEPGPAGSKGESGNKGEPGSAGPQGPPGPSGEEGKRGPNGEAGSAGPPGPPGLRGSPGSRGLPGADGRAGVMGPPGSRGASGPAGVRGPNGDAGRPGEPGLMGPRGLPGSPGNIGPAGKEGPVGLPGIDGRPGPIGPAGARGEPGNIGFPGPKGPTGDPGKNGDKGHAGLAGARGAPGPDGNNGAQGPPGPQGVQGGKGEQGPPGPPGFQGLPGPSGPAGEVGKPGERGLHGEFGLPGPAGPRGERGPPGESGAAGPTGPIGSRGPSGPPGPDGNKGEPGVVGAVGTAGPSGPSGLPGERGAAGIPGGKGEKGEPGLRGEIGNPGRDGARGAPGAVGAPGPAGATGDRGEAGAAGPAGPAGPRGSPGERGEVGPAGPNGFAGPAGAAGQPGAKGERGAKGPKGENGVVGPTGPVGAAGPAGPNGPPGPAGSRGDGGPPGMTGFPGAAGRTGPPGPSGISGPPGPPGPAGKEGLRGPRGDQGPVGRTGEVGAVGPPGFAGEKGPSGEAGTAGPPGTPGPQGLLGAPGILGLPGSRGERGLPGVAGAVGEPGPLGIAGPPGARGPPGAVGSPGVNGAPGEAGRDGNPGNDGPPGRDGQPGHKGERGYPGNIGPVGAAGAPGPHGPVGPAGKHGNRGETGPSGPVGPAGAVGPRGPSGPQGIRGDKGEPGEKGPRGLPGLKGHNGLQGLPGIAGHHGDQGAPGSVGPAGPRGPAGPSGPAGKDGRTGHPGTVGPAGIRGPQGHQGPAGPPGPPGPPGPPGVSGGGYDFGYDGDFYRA
Sequence of Fibronectin (human) (P02751 32-2477): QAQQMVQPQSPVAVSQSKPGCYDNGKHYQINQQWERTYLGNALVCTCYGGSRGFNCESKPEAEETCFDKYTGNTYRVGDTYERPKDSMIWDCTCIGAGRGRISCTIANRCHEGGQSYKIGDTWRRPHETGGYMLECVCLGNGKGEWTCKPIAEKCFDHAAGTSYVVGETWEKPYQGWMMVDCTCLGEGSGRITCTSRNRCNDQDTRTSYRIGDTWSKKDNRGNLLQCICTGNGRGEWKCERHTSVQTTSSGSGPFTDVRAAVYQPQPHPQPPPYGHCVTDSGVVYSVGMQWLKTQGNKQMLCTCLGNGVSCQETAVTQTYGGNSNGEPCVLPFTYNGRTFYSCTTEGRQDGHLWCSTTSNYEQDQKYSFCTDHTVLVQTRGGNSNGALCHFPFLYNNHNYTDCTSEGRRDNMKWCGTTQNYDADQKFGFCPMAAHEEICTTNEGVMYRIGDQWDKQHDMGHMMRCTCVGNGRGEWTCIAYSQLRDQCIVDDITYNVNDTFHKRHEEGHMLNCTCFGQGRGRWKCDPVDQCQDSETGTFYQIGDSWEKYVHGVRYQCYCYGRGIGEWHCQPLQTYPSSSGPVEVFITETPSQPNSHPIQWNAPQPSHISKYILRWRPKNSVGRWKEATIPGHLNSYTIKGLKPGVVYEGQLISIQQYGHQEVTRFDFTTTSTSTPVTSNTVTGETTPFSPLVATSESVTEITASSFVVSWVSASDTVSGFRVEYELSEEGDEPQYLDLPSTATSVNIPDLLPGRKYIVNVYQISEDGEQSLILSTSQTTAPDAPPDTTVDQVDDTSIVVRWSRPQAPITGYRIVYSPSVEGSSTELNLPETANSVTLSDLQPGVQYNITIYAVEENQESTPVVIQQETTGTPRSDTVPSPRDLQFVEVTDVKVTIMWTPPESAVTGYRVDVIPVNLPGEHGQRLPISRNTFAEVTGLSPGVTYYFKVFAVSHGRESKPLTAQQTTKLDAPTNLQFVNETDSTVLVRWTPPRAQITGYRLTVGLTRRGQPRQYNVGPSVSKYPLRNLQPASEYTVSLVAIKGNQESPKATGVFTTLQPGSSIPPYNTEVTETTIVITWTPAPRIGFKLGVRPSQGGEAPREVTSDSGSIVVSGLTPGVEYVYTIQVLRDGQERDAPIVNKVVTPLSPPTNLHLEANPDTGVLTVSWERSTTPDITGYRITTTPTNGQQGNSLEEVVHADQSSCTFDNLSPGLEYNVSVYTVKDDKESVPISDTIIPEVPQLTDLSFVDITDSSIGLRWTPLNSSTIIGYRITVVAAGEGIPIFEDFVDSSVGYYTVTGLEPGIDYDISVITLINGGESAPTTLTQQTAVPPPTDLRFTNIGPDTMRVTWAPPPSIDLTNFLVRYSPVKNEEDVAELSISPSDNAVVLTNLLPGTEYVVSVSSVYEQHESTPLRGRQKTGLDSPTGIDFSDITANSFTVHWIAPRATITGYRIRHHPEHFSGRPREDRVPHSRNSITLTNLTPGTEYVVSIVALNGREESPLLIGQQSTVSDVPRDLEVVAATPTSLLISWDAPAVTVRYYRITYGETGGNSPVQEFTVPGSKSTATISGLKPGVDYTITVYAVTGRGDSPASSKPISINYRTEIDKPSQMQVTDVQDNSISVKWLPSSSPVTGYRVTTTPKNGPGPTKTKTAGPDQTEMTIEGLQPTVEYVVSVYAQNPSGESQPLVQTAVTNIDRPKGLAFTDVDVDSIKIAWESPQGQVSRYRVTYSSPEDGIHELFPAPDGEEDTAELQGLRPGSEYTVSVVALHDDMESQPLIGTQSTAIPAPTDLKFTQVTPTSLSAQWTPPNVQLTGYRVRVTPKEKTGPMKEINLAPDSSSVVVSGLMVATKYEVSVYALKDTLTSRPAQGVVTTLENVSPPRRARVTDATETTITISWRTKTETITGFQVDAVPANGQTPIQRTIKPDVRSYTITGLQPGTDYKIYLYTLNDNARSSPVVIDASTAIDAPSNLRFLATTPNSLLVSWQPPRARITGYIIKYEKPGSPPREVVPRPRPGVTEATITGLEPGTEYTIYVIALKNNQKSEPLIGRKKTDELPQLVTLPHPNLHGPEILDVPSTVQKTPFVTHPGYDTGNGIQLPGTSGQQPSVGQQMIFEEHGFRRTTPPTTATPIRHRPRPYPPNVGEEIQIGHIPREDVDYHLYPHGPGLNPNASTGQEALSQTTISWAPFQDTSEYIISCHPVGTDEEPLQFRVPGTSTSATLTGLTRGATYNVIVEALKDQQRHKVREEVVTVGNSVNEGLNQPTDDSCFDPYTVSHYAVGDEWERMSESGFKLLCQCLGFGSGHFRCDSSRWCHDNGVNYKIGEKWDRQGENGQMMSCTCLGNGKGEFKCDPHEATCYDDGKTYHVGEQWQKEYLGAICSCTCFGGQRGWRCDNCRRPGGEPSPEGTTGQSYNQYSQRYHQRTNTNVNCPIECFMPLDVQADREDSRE

For 4F10, the Kd (rmCTLA4 (mouse) [1]) was 0.1 nM and the Kd (rmCTLA4 (mouse) [2]) was 0.101 nM.

Substance 9H10 has a Kd (rmCTLA4 (mouse) [2]) of 15 nM.

PlGF-2123-144-4F10 gave a Kd (Collagen I (human)) of 26.7 nM, a Kd (rmCTLA4 (mouse) [2]) of 0.16 nM and a Kd (Fibronectin (human)) of 4.7 nM. For the same substance, the Kd (rmCTLA4 (mouse) [3]) was 0.157 nM.

With PlGF-2123-144-9H10 the Kd (Collagen I (human)) was 1.3 nM, the Kd (rmCTLA4 (mouse) [2]) was 5.7 nM and the Kd (Fibronectin (human)) was 0.87 nM.

With “rat anti-mouse PD-L1 (clone 10F.9G2), wild-type (antibody)” the % of antibody released by plasmin digestion after buffer changes [4] was < 0.1%.
